Data as given in patent US20060240417A1, “Agent controlling the apoptosis induction by p73” (Hisamitsu Pharmaceutical Co., Inc., priority 2002, published 2006).

T1: p73alpha (UniProt O15350 O15350:1-636)
T1 sequence: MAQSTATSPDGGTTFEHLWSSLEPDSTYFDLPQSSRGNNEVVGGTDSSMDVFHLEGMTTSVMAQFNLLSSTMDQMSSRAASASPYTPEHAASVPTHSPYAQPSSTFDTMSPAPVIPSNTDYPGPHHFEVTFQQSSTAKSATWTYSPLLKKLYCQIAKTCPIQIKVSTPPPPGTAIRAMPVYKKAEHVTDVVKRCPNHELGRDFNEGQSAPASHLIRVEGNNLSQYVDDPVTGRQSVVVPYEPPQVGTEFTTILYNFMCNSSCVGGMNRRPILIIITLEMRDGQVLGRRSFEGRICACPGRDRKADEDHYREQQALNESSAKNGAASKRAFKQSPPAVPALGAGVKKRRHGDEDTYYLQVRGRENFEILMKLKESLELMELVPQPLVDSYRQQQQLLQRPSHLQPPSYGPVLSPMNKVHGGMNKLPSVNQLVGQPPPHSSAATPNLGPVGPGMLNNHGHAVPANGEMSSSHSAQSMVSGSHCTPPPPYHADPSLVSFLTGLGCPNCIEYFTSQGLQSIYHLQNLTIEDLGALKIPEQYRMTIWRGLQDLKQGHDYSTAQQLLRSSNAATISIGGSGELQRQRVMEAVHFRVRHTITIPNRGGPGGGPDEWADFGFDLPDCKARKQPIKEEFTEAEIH

T2: p73beta (UniProt O15350-2 O15350-2:1-499)
T2 sequence: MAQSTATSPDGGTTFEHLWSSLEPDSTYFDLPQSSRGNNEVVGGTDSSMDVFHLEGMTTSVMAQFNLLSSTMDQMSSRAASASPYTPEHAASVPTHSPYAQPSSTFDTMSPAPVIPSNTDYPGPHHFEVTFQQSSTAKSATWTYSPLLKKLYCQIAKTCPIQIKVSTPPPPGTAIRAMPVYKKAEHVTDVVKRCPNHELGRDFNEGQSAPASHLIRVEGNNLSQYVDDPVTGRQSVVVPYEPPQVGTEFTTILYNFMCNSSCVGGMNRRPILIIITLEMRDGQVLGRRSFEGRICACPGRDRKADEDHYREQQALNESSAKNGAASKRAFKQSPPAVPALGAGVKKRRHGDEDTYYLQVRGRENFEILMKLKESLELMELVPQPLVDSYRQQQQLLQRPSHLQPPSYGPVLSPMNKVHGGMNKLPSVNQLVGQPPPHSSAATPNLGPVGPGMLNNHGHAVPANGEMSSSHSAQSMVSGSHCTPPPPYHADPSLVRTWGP


Columns and labels:
[1] = system: p73α and ΔNp73α in SH-SY5Y cells; test: Immunoblot (Western blotting) of cisplatin-treated tumor cells; format: cell-based, human; conditions: tumor cells treated with cisplatin, RT-PCR
Experimental: The present inventors ascertained that treating tumor cells with the DNA inhibiting agent cisplatin causes apoptosis of the tumor cells in a dose-dependent manner. Production of proteins p53 and p73α was confirmed by Western blotting. The tumor cells in this case are preferably neuroblastoma cells, but may also be other central or peripheral nervous system tumor cells.
The cells were lysed in EBC buffer (50 mM Tris-HCl, pH 8.0/120 mM NaCl/0.5% Nonidet P-40) containing 1 mM phenylmethylsulfonyl fluoride. The lysate was clarified by centrifugation at 14,000 rpm at 4° C. for 15 minutes. The protein concentration was determined by the Bradford procedure. For immunoblot analysis, the proteins were resolved by SDS […] gel electrophoresis and transferred to a nitrocellulose membrane. The membrane filter was blocked with 5% powdered milk in TBST (10 mM Tris-HCl, pH 8.0/150 mM NaCl/0.1% Tween 20) for 1 hour at room temperature. […] The bound secondary antibody was detected by enhanced chemiluminescence (ECL, Amersham Pharmacia Biotech) according to the manufacturer's protocol.
The whole cell protein (40 μg) was extracted from each culture. The expression levels of p73α and p53 were each determined by immunoblot analysis (described above) using p73α-specific antibody (Ab-1) or p53-specific antibody (DO-1). […]

p73alpha = target: T1, p73alpha; test: EMSA; supershifted by anti-HA; poly(dI-dC), 3.125 mM MgCl2, room temperature; conditions: tags: HA tag; TNT reticulocyte lysate; label: 32P
p73beta = target: T2, p73beta; test: as above; conditions: tags: HA tag; TNT reticulocyte lysate; label: 32P

Molecule	production of p73α and ΔNp73α at mRNA and protein level [1]	binding result (p73alpha)	binding result (p73beta)
N.N.[Cl][Pt][Cl] [cisplatin]	induces production of p73α and ΔNp73α	–	–
deltaNp73 promoter 61-bp probe (dsDNA) DNA 1: GTGCGGTCCAACACATCACCGGGCAAGCTGAGGCCTGCCCCGGACTTGGATGAATACTCAT DNA 2: ATGAGTATTCATCCAAGTCCGGGGCAGGCCTCAGCTTGCCCGGTGATGTGTTGGACCGCAC	–	binds	binds
